The target of this assay is mouse FGFR4/β-klotho complex co-expressed in rat L6 myoblast cells (mouse, UniProt Q03142 17-799; Q99N32 1-1043). Description: cell-based or functional assay.
Sequence of mouse FGFR4/β-klotho complex co-expressed in rat L6 myoblast cells (Q03142 17-799, chain 1 of 2): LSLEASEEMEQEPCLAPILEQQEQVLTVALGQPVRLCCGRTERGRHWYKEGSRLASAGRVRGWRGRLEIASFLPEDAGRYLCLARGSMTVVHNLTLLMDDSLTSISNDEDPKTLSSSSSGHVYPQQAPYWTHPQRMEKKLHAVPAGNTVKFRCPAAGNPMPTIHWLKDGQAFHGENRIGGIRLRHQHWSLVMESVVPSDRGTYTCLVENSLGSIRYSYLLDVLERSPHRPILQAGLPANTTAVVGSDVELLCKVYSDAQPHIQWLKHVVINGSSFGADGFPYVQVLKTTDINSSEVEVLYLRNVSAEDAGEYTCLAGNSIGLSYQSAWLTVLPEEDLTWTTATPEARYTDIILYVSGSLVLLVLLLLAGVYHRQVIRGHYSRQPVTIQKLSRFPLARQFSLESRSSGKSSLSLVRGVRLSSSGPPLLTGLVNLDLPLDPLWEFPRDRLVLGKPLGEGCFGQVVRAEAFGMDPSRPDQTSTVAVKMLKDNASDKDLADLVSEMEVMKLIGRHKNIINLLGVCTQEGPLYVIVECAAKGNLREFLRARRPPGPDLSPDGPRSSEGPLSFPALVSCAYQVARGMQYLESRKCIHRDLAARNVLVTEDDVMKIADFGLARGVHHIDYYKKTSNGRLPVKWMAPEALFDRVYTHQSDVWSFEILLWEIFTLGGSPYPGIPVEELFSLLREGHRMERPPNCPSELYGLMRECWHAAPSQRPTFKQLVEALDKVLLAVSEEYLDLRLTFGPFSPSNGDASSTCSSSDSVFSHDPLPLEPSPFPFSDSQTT
Sequence of mouse FGFR4/β-klotho complex co-expressed in rat L6 myoblast cells (Q99N32 whole entry, chain 2 of 2): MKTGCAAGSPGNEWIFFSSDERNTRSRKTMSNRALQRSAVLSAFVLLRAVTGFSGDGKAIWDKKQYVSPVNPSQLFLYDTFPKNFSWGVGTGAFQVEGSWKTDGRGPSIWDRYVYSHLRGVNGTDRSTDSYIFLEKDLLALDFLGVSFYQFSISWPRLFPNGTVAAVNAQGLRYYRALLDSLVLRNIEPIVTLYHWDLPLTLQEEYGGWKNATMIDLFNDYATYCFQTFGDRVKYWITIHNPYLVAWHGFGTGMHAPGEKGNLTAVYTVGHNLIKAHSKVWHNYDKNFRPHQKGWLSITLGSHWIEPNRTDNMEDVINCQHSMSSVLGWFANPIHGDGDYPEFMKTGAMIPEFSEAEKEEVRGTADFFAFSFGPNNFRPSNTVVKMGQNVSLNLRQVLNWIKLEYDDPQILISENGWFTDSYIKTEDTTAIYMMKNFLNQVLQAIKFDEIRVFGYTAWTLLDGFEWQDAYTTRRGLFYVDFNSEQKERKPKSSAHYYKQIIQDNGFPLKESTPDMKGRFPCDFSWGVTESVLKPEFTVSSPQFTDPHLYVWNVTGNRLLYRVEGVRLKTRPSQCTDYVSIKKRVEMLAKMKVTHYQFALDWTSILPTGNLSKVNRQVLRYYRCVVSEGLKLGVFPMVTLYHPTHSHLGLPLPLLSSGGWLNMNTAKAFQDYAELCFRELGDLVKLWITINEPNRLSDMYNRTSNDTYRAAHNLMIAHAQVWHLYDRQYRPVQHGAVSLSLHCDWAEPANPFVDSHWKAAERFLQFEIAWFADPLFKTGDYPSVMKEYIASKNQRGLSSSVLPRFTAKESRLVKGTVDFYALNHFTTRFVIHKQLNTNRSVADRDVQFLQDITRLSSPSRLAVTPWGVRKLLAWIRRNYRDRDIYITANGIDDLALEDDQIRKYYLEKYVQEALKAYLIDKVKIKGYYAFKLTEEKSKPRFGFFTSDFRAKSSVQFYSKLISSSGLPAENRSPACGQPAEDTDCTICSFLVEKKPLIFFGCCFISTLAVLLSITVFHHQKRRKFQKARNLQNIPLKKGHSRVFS

B1: M70 (FGF19 variant) (ligand)
chain: MRDSSPLVHYGWGDPIRLRHLYTSGPHGLSSCFLRIRADGVVDCARGQSAHSLLEIKAVALRTVAIKGVHSVRYLCMGADGKMQGLLQYSEEDCAFEEEIRPDGYNVYRSEKHRLPVSLSSAKQRQLYKNRGFLPLSHFLPMLPMVPEEPEDLRGHLESDMFSSPLETDSMDPFGLVTGLEAVRSPSFEK
As to B1, the “EC50 (pM), ELK1 luciferase reporter in L6 cells transfected with mouse FGFR4 and β-klotho” value was found to be 38.3 pM; the “Emax (fold potentiation), ELK1 luciferase reporter in L6 cells transfected with mouse FGFR4 and β-klotho” value was determined as 1.85 fold potentiation.

(Values after US20200390859A1 (NGM BIOPHARMACEUTICALS, published 2020).)
